Assay results as given in US20240239878A1 (SHANGHAI QILU PHARMACEUTICAL RESEARCH AND DEVELOPMENT CENTRE, published 2024).
Read-outs that look alike come from different tables or passages of the source.

T1: human DLL3 antigen protein (Kactus Biosystems, Cat. No. DLL-HM103) (human, UniProt Q9NYJ7 27-492)
T1 sequence: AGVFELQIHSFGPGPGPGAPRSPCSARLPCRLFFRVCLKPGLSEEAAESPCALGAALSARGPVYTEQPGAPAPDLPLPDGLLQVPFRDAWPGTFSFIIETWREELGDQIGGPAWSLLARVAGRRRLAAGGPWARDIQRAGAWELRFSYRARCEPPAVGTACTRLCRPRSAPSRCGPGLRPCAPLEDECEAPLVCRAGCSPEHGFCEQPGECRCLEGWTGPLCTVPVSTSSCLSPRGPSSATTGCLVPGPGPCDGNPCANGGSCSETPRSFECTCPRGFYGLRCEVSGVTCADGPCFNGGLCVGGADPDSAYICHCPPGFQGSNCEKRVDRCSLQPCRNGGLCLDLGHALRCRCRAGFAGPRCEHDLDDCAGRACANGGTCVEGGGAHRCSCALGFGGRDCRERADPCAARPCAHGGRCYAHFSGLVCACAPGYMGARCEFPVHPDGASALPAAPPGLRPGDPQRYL

T2: human DLL3 on SHP-77 cells (human, UniProt Q9NYJ7 27-618)
T2 construct: also called DLL3-expressing cells (SHP-77)
T2 sequence: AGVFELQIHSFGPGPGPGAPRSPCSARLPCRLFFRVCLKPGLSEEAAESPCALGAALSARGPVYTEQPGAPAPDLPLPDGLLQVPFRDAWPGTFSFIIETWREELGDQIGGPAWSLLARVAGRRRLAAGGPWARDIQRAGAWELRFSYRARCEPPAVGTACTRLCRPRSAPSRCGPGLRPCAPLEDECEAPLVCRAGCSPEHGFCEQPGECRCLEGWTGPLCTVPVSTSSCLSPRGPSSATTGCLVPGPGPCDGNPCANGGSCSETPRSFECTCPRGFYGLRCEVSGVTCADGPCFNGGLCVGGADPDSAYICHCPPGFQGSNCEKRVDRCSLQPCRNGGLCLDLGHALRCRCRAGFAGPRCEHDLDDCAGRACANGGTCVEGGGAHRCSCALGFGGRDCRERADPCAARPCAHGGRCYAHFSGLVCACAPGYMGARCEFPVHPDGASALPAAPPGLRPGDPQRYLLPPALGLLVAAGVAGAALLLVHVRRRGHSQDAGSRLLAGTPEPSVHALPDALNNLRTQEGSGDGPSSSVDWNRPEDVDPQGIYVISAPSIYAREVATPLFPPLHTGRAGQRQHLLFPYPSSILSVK

T3: human DLL1 (Sino Biological, Cat. No. 11635-H08H) (human, UniProt O00548 18-545)
T3 construct: also called family protein DLL1
T3 sequence: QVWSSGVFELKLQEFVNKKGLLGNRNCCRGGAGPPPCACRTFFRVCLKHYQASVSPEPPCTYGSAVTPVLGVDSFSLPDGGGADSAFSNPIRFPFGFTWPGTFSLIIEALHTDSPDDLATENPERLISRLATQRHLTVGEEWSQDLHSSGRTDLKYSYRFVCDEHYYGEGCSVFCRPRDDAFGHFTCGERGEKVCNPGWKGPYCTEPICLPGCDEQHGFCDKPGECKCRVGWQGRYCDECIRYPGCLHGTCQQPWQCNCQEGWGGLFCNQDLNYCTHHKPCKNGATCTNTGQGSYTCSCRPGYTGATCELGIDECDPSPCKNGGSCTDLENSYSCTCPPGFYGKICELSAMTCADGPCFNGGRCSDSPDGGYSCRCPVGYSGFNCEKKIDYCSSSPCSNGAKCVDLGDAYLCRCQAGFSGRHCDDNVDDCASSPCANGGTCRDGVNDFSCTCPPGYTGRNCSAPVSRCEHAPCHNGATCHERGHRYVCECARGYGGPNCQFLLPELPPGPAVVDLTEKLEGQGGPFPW


Tests used:
[1] = molecular target: T1, human DLL3 antigen protein (Kactus …); assay: affinity assay with human DLL3 antigen protein (kinetics; method not restated, Biacore as in Example 10 implied)
[2] = molecular target: T2, human DLL3 on SHP-77 cells; assay: flow cytometry, SHP-77 cells
[3] = molecular target: T1, human DLL3 antigen protein (Kactus …); assay: SPR (Biacore 8K), antibody captured on anti-human Fc, DLL3 in solution
Protocol: The affinity and kinetic properties of the humanized anti-DLL3 antibody to human DLL3 were analyzed using a Biacore 8K instrument. CM5 chips were activated with EDC and NHS, followed by immobilization of anti-human Fc murine mAb and blocked with ethanolamine.
Human DLL3 was diluted two-fold serially to serial concentrations (100 nM-0.39 nM) and associated for 90 s and dissociated for 600 s at a flow rate of 50 μL/min.
After completion of each round of the experiment, the captured antibody was removed together with the antigen by washing with a 3M MgCl₂ solution at a flow rate of 30 μL/min for 30 s to complete the regeneration of the chip. The raw data were analyzed using Biacore Insight Evaluation Software (3.0.12.15655) software and fitted with a (1:1) Langmuir model with.

[4] = molecular target: T4, human DLL4 (Sino Biological, Cat. No. 10171-H08H) (human, UniProt Q9NR61 27-529); assay: ELISA, plate coated with human DLL4 at 1 ug/mL, OD 450nm
T4 construct: also called family protein DLL4
T4 sequence (Q9NR61 27-529 limits assumed): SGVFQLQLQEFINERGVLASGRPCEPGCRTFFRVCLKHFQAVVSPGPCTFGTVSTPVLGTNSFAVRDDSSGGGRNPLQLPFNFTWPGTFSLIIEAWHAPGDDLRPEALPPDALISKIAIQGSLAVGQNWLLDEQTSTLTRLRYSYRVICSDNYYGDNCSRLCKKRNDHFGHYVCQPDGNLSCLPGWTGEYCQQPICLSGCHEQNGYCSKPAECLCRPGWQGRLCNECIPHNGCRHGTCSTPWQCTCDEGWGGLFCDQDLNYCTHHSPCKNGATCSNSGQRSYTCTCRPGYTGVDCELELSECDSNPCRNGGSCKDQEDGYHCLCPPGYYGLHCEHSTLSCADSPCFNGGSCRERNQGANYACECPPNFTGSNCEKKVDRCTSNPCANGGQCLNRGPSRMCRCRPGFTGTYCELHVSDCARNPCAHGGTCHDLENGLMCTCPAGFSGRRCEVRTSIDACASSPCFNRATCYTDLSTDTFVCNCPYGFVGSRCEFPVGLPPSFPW
Protocol: (§1) The antigenic proteins human DLL1 (SinoBiological, cat. No. 11635-H08H) or human DLL4 (SinoBiological, cat. No. 10171-H08H) were dissolved in 1×PBS at a concentration of 1 μg/mL. […] The antigen was washed three times with PBST, 300 μL/well. The antigen was blocked with 1% BSA (in PBST), 200 µL/well, and incubated at 37° C. for 1.5 hours.
(§2) Antibodies to be tested were diluted with 1% BSA (in PBS) at a starting concentration of 100 nM, downwards by a 10-fold gradient for 7 concentrations. The plates were washed three times with PBST, 300 μL/well. The diluted antibody was added to an ELISA plate at 100 μL/well and incubated at room temperature for 2 hours. The antibodies were washed three times with PBST, 300 μL/well. The secondary antibodies (goat anti-human IgG Fc for DLL4 (HRP), 1:20000 dilution; HRP goat anti-mouse IgG (H+L) for DLL1, 1:10000 dilution) were diluted with 1% BSA in PBST. The diluted secondary antibodies were added to the ELISA plate at 100 μL/well and incubated at room temperature for 1 hour. The plates were washed 6 times with PBST, 300 μL/well. The developing solution (TMA and TMB 1:1 mixed) was prepared. The developing solution was added to the plate, 100 μL/well, and incubated in the dark for 5 min. 50 μL of ELISA stop solution was added to the plate and shaken well.

[5] = molecular target: T3, human DLL1 (Sino Biological, Cat. No. …); assay: ELISA, plate coated with human DLL1 at 1 ug/mL, OD 450nm
Protocol: as §1, §2

[6] = molecular target: T2, human DLL3 on SHP-77 cells; assay: flow cytometry, SHP-77 cells; remark: listed apart in the source
Outline: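 Trypsinised SHP-77 cells in 1% BSA/PBS were incubated with antibody (100 nM top, 10-fold steps, 7 concentrations) for 1 h at 4° C. Bound antibody was detected with goat anti-human IgG Fc-PE for 0.5 h at 4° C and read as PE mean fluorescence intensity. EC50 and Top MFI were derived from the curves.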

Binder | Kd [1] | koff [1] | kon [1] | EC50 [2] | Top MFI [2] | Kd [3] | koff [3] | kon [3] | binding result [4] | binding result [5] | EC50 [6] | Top MFI [6]
hDLL3-3-1-NA humanized antibody variant (antibody, V domains shown) VH: EVQLVESGGGLVQPGGSLRLSCAASTYTISSGYMGWFRQAPGKEREGVAAIYIGGSTTLYADSVKGRFTISRDNSKNTLYLQMNSLRAEDTAVYYCAAQLRPNAAYHPLDGRKYNYWGQGTLVTVSS | 0.105 nM | 0.000135 s⁻¹ | 1.29e+06 M⁻¹ s⁻¹ | 0.104 nM | 1270 MFI | – | – | – | – | – | – | –
hDLL3-3-1-QS humanized antibody variant (antibody, V domains shown) VH: EVQLVESGGGLVQPGGSLRLSCAASTYTISSGYMGWFRQAPGKEREGVAAIYIGGSTTLYADSVKGRFTISRDNSKNTLYLQMNSLRAEDTAVYYCAAQLRPQSAYHPLDGRKYNYWGQGTLVTVSS | 5.02 nM | 0.00611 s⁻¹ | 1.22e+06 M⁻¹ s⁻¹ | 0.055 nM | 1010 MFI | – | – | – | – | – | – | –
H2-45E4D7 mouse hybridoma-derived humanized anti-DLL3 antibody (antibody, V domains shown) VH: QVQLVQSGAEVKKPGASVKVSCKASGYTFTSHWITWVRQAPGQGLEWMGDIYPISGSTNNNEKFRNRVTMTRDTSTSTVYMELSSLRSEDTAVYYCAKIITVGGAYVMDYWGQGTLVTVSS VL: EIVMTQSPATLSVSPGERATLSCRASQSVRNNLHWYQQKPGQAPRLLIKYVSQSISGIPARFSGSGSGTEFTLTISSLQSEDFAVYYCQQSNSWPLTFGGGTKLEIK | – | – | – | – | – | 0.246 nM | 5.78e-05 s⁻¹ | 235000 M⁻¹ s⁻¹ | no binding (tested: 100 nM) | no binding (tested: 100 nM) | 2.23 nM | 1610 MFI
